Measured values: patent US20170298395A1, “AUTOTROPHIC HYDROGEN BACTERIA AND USES THEREOF” (Ohio State Innovation Foundation, priority 2011, published 2017)
Read-outs that look alike come from different tables or passages of the source.

Assays:
RubisCO = type: cell-based, Ralstonia eutropha; settings: for Chemoheterotrophic RubisCO activity: Table 12, chemoheterotrophic (repressed) growth
cbb promoter [1] = type: binding, R. eutropha; settings: for effect of ATP on CbbR binding to cbb promoter probe (phosphorimage, in words): in the presence of ATP; for effect of RuBP on CbbR binding to cbb promoter probe (phosphorimage, in words): in the presence of RuBP
cbb promoter [2] = type: cell-based, Ralstonia eutropha; settings: for Chemoheterotrophic β-galactosidase activity: Table 12, chemoheterotrophic (repressed) growth
cbbL transcript = type: cell-based, Ralstonia eutropha; settings: chemoautotrophic growth
[3] = Table 9, chemoautotrophic growth conditions
[4] = Table 12, chemoautotrophic (induced) growth

B1: wt CbbR: wild-type CbbR (R. eutropha), 317 amino acids, SEQ ID NO: 1 (protein)
chain: MSSFLRALTLRQLQIFVTVARHASFVRAAEELHLTQPAVSMQVKQLESVVGMALFERVKGQLTLTEPGDRLLHHASRILGEVKDAEEGLQAVKDVEQGSITIGLISTSKYFAPKLLAGFTALHPGVDLRIAEGNRETLLRLLQDNAIDLALMGRPPRELDAVSEPIAAHPHVLVASPRHPLHDAKGFDLQELRHETFLLREPGSGTRTVAEYMFRDHLFTPAKVITLGSNETIKQAVMAGMGISLLSLHTLGLELRTGEIGLLDVAGTPIERIWHVAHMSSKRLSPASESCRAYLLEHTAEFLGREYGGLMPGRRVA
Chemoautotrophic RubisCO activity (RubisCO; [3]): 90 nmol/min/mg of protein
Chemoautotrophic RubisCO activity (RubisCO; [4]): 139 nmol/min/mg of protein
Chemoheterotrophic RubisCO activity (RubisCO): 0.1 nmol/min/mg of protein
effect of ATP on CbbR binding to cbb promoter probe (phosphorimage, in words) (cbb promoter [1]): enhancement of binding
effect of FBP on CbbR binding to cbb promoter probe (phosphorimage, in words) (cbb promoter [1]; in the presence of FBP): no enhancement of binding
effect of NADPH on CbbR binding to cbb promoter probe (phosphorimage, in words) (cbb promoter [1]; in the presence of NADPH): modest enhancement of binding
effect of Ru5P on CbbR binding to cbb promoter probe (phosphorimage, in words) (cbb promoter [1]; in the presence of Ru5P): no enhancement of binding
effect of RuBP on CbbR binding to cbb promoter probe (phosphorimage, in words) (cbb promoter [1]): enhancement of binding
Chemoautotrophic β-galactosidase activity (cbb promoter [2]; [3]): 3265 nmol/min/mg of protein
Chemoautotrophic β-galactosidase activity (cbb promoter [2]; [4]): 3265 nmol/min/mg of protein
Chemoheterotrophic β-galactosidase activity (cbb promoter [2]): 3 nmol/min/mg of protein

B2: G98R (protein)
chain: MSSFLRALTLRQLQIFVTVARHASFVRAAEELHLTQPAVSMQVKQLESVVGMALFERVKGQLTLTEPGDRLLHHASRILGEVKDAEEGLQAVKDVEQRSITIGLISTSKYFAPKLLAGFTALHPGVDLRIAEGNRETLLRLLQDNAIDLALMGRPPRELDAVSEPIAAHPHVLVASPRHPLHDAKGFDLQELRHETFLLREPGSGTRTVAEYMFRDHLFTPAKVITLGSNETIKQAVMAGMGISLLSLHTLGLELRTGEIGLLDVAGTPIERIWHVAHMSSKRLSPASESCRAYLLEHTAEFLGREYGGLMPGRRVA
effect of ATP on CbbR binding to cbb promoter probe (phosphorimage, in words) (cbb promoter [1]): no enhancement of binding
effect of RuBP on CbbR binding to cbb promoter probe (phosphorimage, in words) (cbb promoter [1]): modest enhancement of binding

B3: R272Q (protein)
chain: MSSFLRALTLRQLQIFVTVARHASFVRAAEELHLTQPAVSMQVKQLESVVGMALFERVKGQLTLTEPGDRLLHHASRILGEVKDAEEGLQAVKDVEQGSITIGLISTSKYFAPKLLAGFTALHPGVDLRIAEGNRETLLRLLQDNAIDLALMGRPPRELDAVSEPIAAHPHVLVASPRHPLHDAKGFDLQELRHETFLLREPGSGTRTVAEYMFRDHLFTPAKVITLGSNETIKQAVMAGMGISLLSLHTLGLELRTGEIGLLDVAGTPIEQIWHVAHMSSKRLSPASESCRAYLLEHTAEFLGREYGGLMPGRRVA
effect of ATP on CbbR binding to cbb promoter probe (phosphorimage, in words) (cbb promoter [1]): modest enhancement of binding
effect of RuBP on CbbR binding to cbb promoter probe (phosphorimage, in words) (cbb promoter [1]): reduction of binding

B4: A167V (protein)
chain: MSSFLRALTLRQLQIFVTVARHASFVRAAEELHLTQPAVSMQVKQLESVVGMALFERVKGQLTLTEPGDRLLHHASRILGEVKDAEEGLQAVKDVEQGSITIGLISTSKYFAPKLLAGFTALHPGVDLRIAEGNRETLLRLLQDNAIDLALMGRPPRELDAVSEPIVAHPHVLVASPRHPLHDAKGFDLQELRHETFLLREPGSGTRTVAEYMFRDHLFTPAKVITLGSNETIKQAVMAGMGISLLSLHTLGLELRTGEIGLLDVAGTPIERIWHVAHMSSKRLSPASESCRAYLLEHTAEFLGREYGGLMPGRRVA
level of RubisCO relative to wild-type CbbR (RubisCO; CA growth conditions): ~2.7 fold
Chemoautotrophic RubisCO activity (RubisCO; [3]): 173 nmol/min/mg of protein
Chemoautotrophic RubisCO activity (RubisCO; [4]): 370 nmol/min/mg of protein
Chemoheterotrophic RubisCO activity (RubisCO): 15 nmol/min/mg of protein
increase in transcription over wild type CbbR (RT-PCR, FIG. 22) (cbbL transcript; 26 cycles of PCR): 4.1 fold
increase in cbb transcript over wild type CbbR (RT-PCR, FIG. 21) (cbbL transcript; OD 0.2): 3.3 fold
Chemoautotrophic β-galactosidase activity (cbb promoter [2]; [3]): 7373 nmol/min/mg of protein
Chemoautotrophic β-galactosidase activity (cbb promoter [2]; [4]): 7373 nmol/min/mg of protein
Chemoheterotrophic β-galactosidase activity (cbb promoter [2]): 768 nmol/min/mg of protein

B5: D148N (protein)
chain: MSSFLRALTLRQLQIFVTVARHASFVRAAEELHLTQPAVSMQVKQLESVVGMALFERVKGQLTLTEPGDRLLHHASRILGEVKDAEEGLQAVKDVEQGSITIGLISTSKYFAPKLLAGFTALHPGVDLRIAEGNRETLLRLLQDNAINLALMGRPPRELDAVSEPIAAHPHVLVASPRHPLHDAKGFDLQELRHETFLLREPGSGTRTVAEYMFRDHLFTPAKVITLGSNETIKQAVMAGMGISLLSLHTLGLELRTGEIGLLDVAGTPIERIWHVAHMSSKRLSPASESCRAYLLEHTAEFLGREYGGLMPGRRVA
Chemoautotrophic RubisCO activity (RubisCO; [3]): 185 nmol/min/mg of protein
Chemoautotrophic RubisCO activity (RubisCO; [4]): 242 nmol/min/mg of protein
Chemoheterotrophic RubisCO activity (RubisCO): 8 nmol/min/mg of protein
Chemoautotrophic β-galactosidase activity (cbb promoter [2]; [3]): 5909 nmol/min/mg of protein
Chemoautotrophic β-galactosidase activity (cbb promoter [2]; [4]): 6442 nmol/min/mg of protein
Chemoheterotrophic β-galactosidase activity (cbb promoter [2]): 343 nmol/min/mg of protein

B6: P221S/T299I (protein)
chain: MSSFLRALTLRQLQIFVTVARHASFVRAAEELHLTQPAVSMQVKQLESVVGMALFERVKGQLTLTEPGDRLLHHASRILGEVKDAEEGLQAVKDVEQGSITIGLISTSKYFAPKLLAGFTALHPGVDLRIAEGNRETLLRLLQDNAIDLALMGRPPRELDAVSEPIAAHPHVLVASPRHPLHDAKGFDLQELRHETFLLREPGSGTRTVAEYMFRDHLFTSAKVITLGSNETIKQAVMAGMGISLLSLHTLGLELRTGEIGLLDVAGTPIERIWHVAHMSSKRLSPASESCRAYLLEHIAEFLGREYGGLMPGRRVA
Chemoautotrophic RubisCO activity (RubisCO; [3]): 206 nmol/min/mg of protein
Chemoautotrophic RubisCO activity (RubisCO; [4]): 212 nmol/min/mg of protein
Chemoheterotrophic RubisCO activity (RubisCO): 16 nmol/min/mg of protein
Chemoautotrophic β-galactosidase activity (cbb promoter [2]; [3]): 4672 nmol/min/mg of protein
Chemoautotrophic β-galactosidase activity (cbb promoter [2]; [4]): 5312 nmol/min/mg of protein
Chemoheterotrophic β-galactosidase activity (cbb promoter [2]): 655 nmol/min/mg of protein

B7: T232A (protein)
chain: MSSFLRALTLRQLQIFVTVARHASFVRAAEELHLTQPAVSMQVKQLESVVGMALFERVKGQLTLTEPGDRLLHHASRILGEVKDAEEGLQAVKDVEQGSITIGLISTSKYFAPKLLAGFTALHPGVDLRIAEGNRETLLRLLQDNAIDLALMGRPPRELDAVSEPIAAHPHVLVASPRHPLHDAKGFDLQELRHETFLLREPGSGTRTVAEYMFRDHLFTPAKVITLGSNEAIKQAVMAGMGISLLSLHTLGLELRTGEIGLLDVAGTPIERIWHVAHMSSKRLSPASESCRAYLLEHTAEFLGREYGGLMPGRRVA
Chemoautotrophic RubisCO activity (RubisCO; [3]): 78 nmol/min/mg of protein
Chemoautotrophic RubisCO activity (RubisCO; [4]): 140 nmol/min/mg of protein
Chemoheterotrophic RubisCO activity (RubisCO): 4 nmol/min/mg of protein
Chemoautotrophic β-galactosidase activity (cbb promoter [2]; [3]): 4626 nmol/min/mg of protein
Chemoautotrophic β-galactosidase activity (cbb promoter [2]; [4]): 5269 nmol/min/mg of protein
Chemoheterotrophic β-galactosidase activity (cbb promoter [2]): 212 nmol/min/mg of protein

B8: T232I (protein)
chain: MSSFLRALTLRQLQIFVTVARHASFVRAAEELHLTQPAVSMQVKQLESVVGMALFERVKGQLTLTEPGDRLLHHASRILGEVKDAEEGLQAVKDVEQGSITIGLISTSKYFAPKLLAGFTALHPGVDLRIAEGNRETLLRLLQDNAIDLALMGRPPRELDAVSEPIAAHPHVLVASPRHPLHDAKGFDLQELRHETFLLREPGSGTRTVAEYMFRDHLFTPAKVITLGSNEIIKQAVMAGMGISLLSLHTLGLELRTGEIGLLDVAGTPIERIWHVAHMSSKRLSPASESCRAYLLEHTAEFLGREYGGLMPGRRVA
Chemoautotrophic RubisCO activity (RubisCO; [3]): 106 nmol/min/mg of protein
Chemoautotrophic RubisCO activity (RubisCO; [4]): 123 nmol/min/mg of protein
Chemoheterotrophic RubisCO activity (RubisCO): 5 nmol/min/mg of protein
Chemoautotrophic β-galactosidase activity (cbb promoter [2]; [3]): 5005 nmol/min/mg of protein
Chemoautotrophic β-galactosidase activity (cbb promoter [2]; [4]): 5005 nmol/min/mg of protein
Chemoheterotrophic β-galactosidase activity (cbb promoter [2]): 303 nmol/min/mg of protein

B9: P269S/T299I (protein)
chain: MSSFLRALTLRQLQIFVTVARHASFVRAAEELHLTQPAVSMQVKQLESVVGMALFERVKGQLTLTEPGDRLLHHASRILGEVKDAEEGLQAVKDVEQGSITIGLISTSKYFAPKLLAGFTALHPGVDLRIAEGNRETLLRLLQDNAIDLALMGRPPRELDAVSEPIAAHPHVLVASPRHPLHDAKGFDLQELRHETFLLREPGSGTRTVAEYMFRDHLFTPAKVITLGSNETIKQAVMAGMGISLLSLHTLGLELRTGEIGLLDVAGTSIERIWHVAHMSSKRLSPASESCRAYLLEHIAEFLGREYGGLMPGRRVA
Chemoautotrophic RubisCO activity (RubisCO; [3]): 118 nmol/min/mg of protein
Chemoautotrophic RubisCO activity (RubisCO; [4]): 158 nmol/min/mg of protein
Chemoheterotrophic RubisCO activity (RubisCO): 14 nmol/min/mg of protein
Chemoautotrophic β-galactosidase activity (cbb promoter [2]; [3]): 3697 nmol/min/mg of protein
Chemoautotrophic β-galactosidase activity (cbb promoter [2]; [4]): 3879 nmol/min/mg of protein
Chemoheterotrophic β-galactosidase activity (cbb promoter [2]): 617 nmol/min/mg of protein

B10: G205D/G118D (protein)
chain: MSSFLRALTLRQLQIFVTVARHASFVRAAEELHLTQPAVSMQVKQLESVVGMALFERVKGQLTLTEPGDRLLHHASRILGEVKDAEEGLQAVKDVEQGSITIGLISTSKYFAPKLLADFTALHPGVDLRIAEGNRETLLRLLQDNAIDLALMGRPPRELDAVSEPIAAHPHVLVASPRHPLHDAKGFDLQELRHETFLLREPGSDTRTVAEYMFRDHLFTPAKVITLGSNETIKQAVMAGMGISLLSLHTLGLELRTGEIGLLDVAGTPIERIWHVAHMSSKRLSPASESCRAYLLEHTAEFLGREYGGLMPGRRVA
Chemoautotrophic RubisCO activity (RubisCO; [4]): 148 nmol/min/mg of protein
Chemoheterotrophic RubisCO activity (RubisCO): 30 nmol/min/mg of protein
Chemoautotrophic β-galactosidase activity (cbb promoter [2]; [4]): 3939 nmol/min/mg of protein
Chemoheterotrophic β-galactosidase activity (cbb promoter [2]): 1168 nmol/min/mg of protein
